Literature values, collected in paper PMC2790341.
pKd: −log10 of the molar value.

Tests used:
NRP1 (Homo sapiens) = NRP1 (Homo sapiens) (UniProt O14786)
VEGFR2 (Homo sapiens) = VEGFR2 (Homo sapiens) (UniProt P35968)
VEGFR1 (Homo sapiens) = VEGFR1 (Homo sapiens) (UniProt P17948)
Sequence of UniProt P17948 (P17948 27-1338): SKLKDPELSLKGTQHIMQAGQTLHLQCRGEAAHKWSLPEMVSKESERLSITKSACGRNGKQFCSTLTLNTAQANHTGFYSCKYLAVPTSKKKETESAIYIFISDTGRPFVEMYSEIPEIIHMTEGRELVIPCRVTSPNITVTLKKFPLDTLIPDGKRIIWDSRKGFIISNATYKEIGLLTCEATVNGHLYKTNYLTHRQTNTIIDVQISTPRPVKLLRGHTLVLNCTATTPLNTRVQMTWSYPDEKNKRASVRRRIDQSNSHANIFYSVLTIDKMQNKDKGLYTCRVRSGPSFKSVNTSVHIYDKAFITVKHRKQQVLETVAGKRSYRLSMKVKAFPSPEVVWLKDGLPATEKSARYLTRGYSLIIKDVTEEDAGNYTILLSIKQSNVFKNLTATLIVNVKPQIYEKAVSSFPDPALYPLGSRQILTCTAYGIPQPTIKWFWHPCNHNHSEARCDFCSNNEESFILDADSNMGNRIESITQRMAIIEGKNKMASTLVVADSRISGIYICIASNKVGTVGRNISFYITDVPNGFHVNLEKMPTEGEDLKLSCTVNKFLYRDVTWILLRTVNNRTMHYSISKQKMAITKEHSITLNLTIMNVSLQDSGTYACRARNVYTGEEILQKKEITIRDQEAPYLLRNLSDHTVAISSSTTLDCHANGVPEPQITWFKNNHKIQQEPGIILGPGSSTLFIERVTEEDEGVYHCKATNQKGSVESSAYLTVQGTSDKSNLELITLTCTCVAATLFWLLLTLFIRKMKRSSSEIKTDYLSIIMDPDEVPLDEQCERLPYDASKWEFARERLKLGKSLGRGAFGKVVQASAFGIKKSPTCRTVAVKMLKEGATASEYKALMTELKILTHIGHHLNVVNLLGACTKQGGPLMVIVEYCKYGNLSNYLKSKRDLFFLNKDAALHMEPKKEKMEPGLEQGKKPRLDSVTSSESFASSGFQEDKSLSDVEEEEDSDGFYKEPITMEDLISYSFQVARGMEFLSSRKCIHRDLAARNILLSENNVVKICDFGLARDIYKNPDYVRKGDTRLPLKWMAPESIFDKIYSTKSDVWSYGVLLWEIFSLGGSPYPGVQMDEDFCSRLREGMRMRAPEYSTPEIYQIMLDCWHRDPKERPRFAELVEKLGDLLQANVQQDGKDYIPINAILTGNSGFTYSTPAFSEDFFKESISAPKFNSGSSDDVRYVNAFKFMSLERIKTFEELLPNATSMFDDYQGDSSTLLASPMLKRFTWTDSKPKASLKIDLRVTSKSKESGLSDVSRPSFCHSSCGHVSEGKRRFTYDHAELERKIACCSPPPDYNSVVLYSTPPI

Sequence of UniProt P35968 (P35968 20-1356): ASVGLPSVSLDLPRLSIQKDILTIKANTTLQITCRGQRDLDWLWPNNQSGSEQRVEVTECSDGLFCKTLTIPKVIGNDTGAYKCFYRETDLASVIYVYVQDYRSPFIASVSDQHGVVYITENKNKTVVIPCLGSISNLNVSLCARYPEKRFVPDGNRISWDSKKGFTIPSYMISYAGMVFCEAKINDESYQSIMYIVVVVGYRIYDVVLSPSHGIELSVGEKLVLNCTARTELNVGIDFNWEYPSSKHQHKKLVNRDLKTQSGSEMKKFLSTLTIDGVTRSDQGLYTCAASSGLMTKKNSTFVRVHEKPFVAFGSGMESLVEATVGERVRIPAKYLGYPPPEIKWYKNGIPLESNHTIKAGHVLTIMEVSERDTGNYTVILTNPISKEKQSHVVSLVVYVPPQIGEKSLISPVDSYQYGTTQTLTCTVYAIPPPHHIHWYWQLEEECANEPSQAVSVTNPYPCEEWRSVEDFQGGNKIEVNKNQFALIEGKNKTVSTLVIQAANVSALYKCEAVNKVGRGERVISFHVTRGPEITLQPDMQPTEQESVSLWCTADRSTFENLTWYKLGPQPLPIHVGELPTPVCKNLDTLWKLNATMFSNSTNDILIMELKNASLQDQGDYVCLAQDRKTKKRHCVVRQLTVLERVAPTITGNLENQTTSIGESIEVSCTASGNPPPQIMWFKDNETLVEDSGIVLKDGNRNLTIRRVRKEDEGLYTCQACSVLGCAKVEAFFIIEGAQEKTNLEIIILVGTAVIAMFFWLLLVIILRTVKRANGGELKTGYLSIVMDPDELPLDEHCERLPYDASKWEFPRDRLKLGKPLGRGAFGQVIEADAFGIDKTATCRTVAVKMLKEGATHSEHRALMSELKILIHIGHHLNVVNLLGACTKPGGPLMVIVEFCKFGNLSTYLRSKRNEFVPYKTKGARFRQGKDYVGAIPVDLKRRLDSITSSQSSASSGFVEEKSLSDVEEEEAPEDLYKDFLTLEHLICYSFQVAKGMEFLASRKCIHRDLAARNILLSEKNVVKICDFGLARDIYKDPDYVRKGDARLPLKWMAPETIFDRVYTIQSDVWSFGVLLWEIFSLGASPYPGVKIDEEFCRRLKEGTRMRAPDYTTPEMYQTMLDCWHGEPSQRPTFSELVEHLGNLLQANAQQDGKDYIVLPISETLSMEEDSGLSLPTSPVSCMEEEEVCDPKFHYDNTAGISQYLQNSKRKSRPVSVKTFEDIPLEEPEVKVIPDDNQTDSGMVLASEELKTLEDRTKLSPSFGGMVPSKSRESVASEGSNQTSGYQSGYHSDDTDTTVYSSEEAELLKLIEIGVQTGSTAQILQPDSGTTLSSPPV
Sequence of UniProt O14786 (O14786 22-923): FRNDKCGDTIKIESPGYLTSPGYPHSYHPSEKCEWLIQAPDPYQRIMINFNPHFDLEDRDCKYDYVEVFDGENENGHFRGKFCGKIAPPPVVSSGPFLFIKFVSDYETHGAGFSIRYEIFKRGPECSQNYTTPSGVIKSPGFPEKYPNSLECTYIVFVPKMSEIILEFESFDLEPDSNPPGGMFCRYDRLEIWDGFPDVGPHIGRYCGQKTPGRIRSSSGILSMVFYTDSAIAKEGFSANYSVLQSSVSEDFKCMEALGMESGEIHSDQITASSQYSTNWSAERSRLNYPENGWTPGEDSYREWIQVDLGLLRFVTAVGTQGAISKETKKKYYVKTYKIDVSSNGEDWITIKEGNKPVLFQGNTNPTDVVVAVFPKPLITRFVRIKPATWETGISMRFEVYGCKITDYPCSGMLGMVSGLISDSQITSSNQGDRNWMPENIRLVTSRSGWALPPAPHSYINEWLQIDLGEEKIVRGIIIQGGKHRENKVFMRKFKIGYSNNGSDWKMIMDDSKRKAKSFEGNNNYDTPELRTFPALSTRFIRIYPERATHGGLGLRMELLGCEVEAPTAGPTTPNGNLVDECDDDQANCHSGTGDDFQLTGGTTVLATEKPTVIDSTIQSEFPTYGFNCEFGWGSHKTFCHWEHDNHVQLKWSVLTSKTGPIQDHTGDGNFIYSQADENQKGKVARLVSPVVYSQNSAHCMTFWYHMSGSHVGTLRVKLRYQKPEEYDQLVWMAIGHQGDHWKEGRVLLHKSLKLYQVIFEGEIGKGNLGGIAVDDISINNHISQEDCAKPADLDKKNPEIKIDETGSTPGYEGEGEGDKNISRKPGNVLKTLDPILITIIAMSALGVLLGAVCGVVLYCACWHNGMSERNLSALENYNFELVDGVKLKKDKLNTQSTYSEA

| pKd (NRP1 (Homo sapiens)) | pKd (VEGFR2 (Homo sapiens)) | pKd (VEGFR1 (Homo sapiens)) | Substance |
| --- | --- | --- | --- |
| 9.51 |  |  | VEGF165 (from UniProt P15692) |
|  | 10.00 | 10.48 | VEGF (from UniProt P15692) |
